{"source": "paper PMC3716865", "key": {"[1]": {"target": "Intracellular part of Medicago truncatula Cytokinin Receptor 1 (MtCRE1′) (Medicago truncatula)", "assay": "dynamic light scattering"}, "[2]": {"target": "Intracellular part of Medicago truncatula Cytokinin Receptor 1 (MtCRE1′) (Medicago truncatula)", "assay": "SEC"}}, "data": [{"substance": "Intracellular part of Medicago truncatula Cytokinin Receptor 1 (MtCRE1′) (domain or fragment)", "values": [{"measurement": "stoichiometry N", "setting": "[1]", "result": 2}, {"measurement": "stoichiometry N", "setting": "[2]", "result": 2}]}]}
